# Measured values: patent US20120045393A1 (priority 2009, published 2012)
# Non-standard residues stand in square brackets, D forms with d. Primed or numbered codes have the meaning given here. DO3A10CM″ = chelating group at the N-terminus (X in the sequence tables); Bpa = N[C@@H](Cc1ccc(C(=O)c2ccccc2)cc1)C(=O)O; d2Nal = N[C@H](Cc1ccc2ccccc2c1)C(=O)O; 3Pal = N[C@@H](Cc1cccnc1)C(=O)O; DO3A10CM = not defined here; Chmgly = not defined here; Dnalg1 = not defined here; Cegly = not defined here; Iegly = not defined here; Tdgly = not defined here; dAfe4 = not defined here; Thz′ = not defined here; Tha = not defined here; azaGly = NNC(=O)O; Sar = CNCC(=O)O
# Target: LHRH receptor (LHRH binding sites) on EFO-27 human ovarian cancer cells (human)
# Experiment: competition with [125I-Tyr8]BRU-2477, EFO-27 cells
row,Binder,EC50 [nM]
1,XHWSHXWXPX (Ac-Amfe4 at 1; Darg at 6; Bpa4 at 8; azaGly-NH2 at 10) [BRU-2839],250
2,DO3A10CM-[d2Nal]RWMH[dR]W[Bpa]P[azaGly]-NH2 (reading uncertain; also: printed as DO3A10CM-Dnal2-Arg-Trp-Met-His-Darg-Trp-Bpa4-Pro-azaGly-NH2) [BRU-2964],220
3,XRWSHXWXPX (N-terminal DO3A10CM; Damfe4 at 1; Darg at 6; Bpa4 at 8; azaGly-NH2 at 10) [BRU-2997],330
4,XRRSHXWXPX (N-terminal DO3A10CM; Dnal2 at 1; Darg at 6; Bpa4 at 8; azaGly-NH2 at 10) [BRU-3111],250
5,XHWSHXWXPX (Ac-Dnal2 at 1; Darg at 6; Bpa4 at 8; azaGly-NH2 at 10) [BRU-2803],260
6,GXRWSHXWXPX (N-terminal DO3A10CM; Gly linker before 1; Dnal2 at 1; Darg at 6; Bpa4 at 8; azaGly-NH2 at 10) [BRU-2962],470
7,XRWNHXWXPX (N-terminal DO3A10CM; Dnal2 at 1; Darg at 6; Bpa4 at 8; azaGly-NH2 at 10) [BRU-2956],270
8,RRWSHXWXPX (N-terminal DO3A10CM; Darg at 6; Bpa4 at 8; azaGly-NH2 at 10) [BRU-3050],310
9,HRWSHXWXPX (N-terminal DO3A10CM; Darg at 6; Bpa4 at 8; azaGly-NH2 at 10) [BRU-3025],470
10,KXRWSHXWXPX (Lys(DO3A10CM) before 1 (chelator on the Lys side chain); Dnal2 at 1; Darg at 6; Bpa4 at 8; azaGly-NH2 at 10) [BRU-3098],410
11,XHWSHXWXPX (pGlu at 1; Darg at 6; Bpa4 at 8; azaGly-NH2 at 10) [BRU-2822],420
12,XRWSHXWXPX (N-terminal DO3A10CM; Dnal2 at 1; Darg at 6; Nal2 at 8; azaGly-NH2 at 10) [BRU-3027],370
13,HWSHXWXPX (N-terminal DO3A10CM on His (AA1 absent); Darg at AA6; Bpa4 at AA8; azaGly-NH2 at AA10) [BRU-2811],360
14,XRWSHRWXPX (N-terminal DO3A10CM; Dnal2 at 1; Bpa4 at 8; azaGly-NH2 at 10 (L-Arg at 6)) [BRU-3031],310
15,XRFSHXWXPX (N-terminal DO3A10CM; Dnal2 at 1; Darg at 6; Bpa4 at 8; azaGly-NH2 at 10) [BRU-3106],430
16,XXRWSHXWXPX (N-terminal DO3A10CM; Ambz4 linker before 1; Dnal2 at 1; Darg at 6; Bpa4 at 8; azaGly-NH2 at 10) [BRU-2963],280

# Target: LHRH binding sites on EFO-27 human ovarian cancer cells (human)
# Experiment: competition with [125I-Tyr8]BRU-2477 on EFO-27 cells
Binder,EC50 [nM],fold reduction in binding potency against BRU-2813 [fold]
XHWSHXWXPX (DO3A10CM on N-terminus; AA1 Dtyr; AA6 Darg; AA8 Bpa4; AA10 azaGly-NH2) [BRU-2870],10000,–
XRWXHXWXPX (DO3A10CM on N-terminus; AA1 Dnal2; AA4 Pal4; AA6 Darg; AA8 Bpa4; AA10 azaGly-NH2) [BRU-2957],840,–
DO3A10CM-G[Chmgly]HWSHRW[Bpa]P[azaGly]-NH2 (not fully specified (residue 7); reading uncertain; also: AA6 Darg prints R) [BRU-2877],900,–
XXWSHXWXPX (DO3A10CM on N-terminus; AA1 Sar; AA2 4ClPhe; AA6 Darg; AA8 Bpa4; AA10 azaGly-NH2) [BRU-2719],630,–
DO3A10CM-G[Iegly]HWSHRW[Bpa]P[azaGly]-NH2 (not fully specified (residue 7); reading uncertain; also: AA6 Darg prints R) [BRU-2879],1030,–
DO3A10CM-G[Cegly]HWSHRW[Bpa]P[azaGly]-NH2 (not fully specified (residue 7); reading uncertain; also: AA6 Darg prints R) [BRU-2875],8700,–
DO3A10CM-G[Thz′]HWSH[dR]W[Bpa]P[azaGly]-NH2 (reading uncertain) [BRU-2728],3150,–
XRWSXXWXPX (DO3A10CM on N-terminus; AA1 Dnal2; AA5 Cit; AA6 Darg; AA8 Bpa4; AA10 azaGly-NH2) [BRU-3030],930,–
{DO3A10CM″}-[Sar][His(pime)]WSH[dR]W[Bpa]P[azaGly]-NH2 [BRU-2759],10000,–
DO3A10CM-G[Dnalg1]HWSH[dR]W[Bpa]P[azaGly]-NH2 (reading uncertain) [BRU-2770],2700,–
XHWSHXWXPX (DO3A10CM on N-terminus; AA1 Sar; AA6 Darg; AA8 Amfe4; AA10 azaGly-NH2) [BRU-2760],3550,–
XHWSHXWXPX (DO3A10CM on N-terminus; AA1 Sar; AA6 Darg; AA8 Dtyr(OBz); AA10 azaGly-NH2) [BRU-2819],770,–
XRWSHXWXPX (DO3A10CM on N-terminus; AA1 Nal2; AA6 Darg; AA8 Bpa4; AA10 azaGly-NH2) [BRU-3051],620,–
XRWSXXWXPX (DO3A10CM on N-terminus; AA1 Dnal2; AA5 Tha; AA6 Darg; AA8 Bpa4; AA10 azaGly-NH2) [BRU-2958],710,–
DO3A10CM-[Sar][3Pal]WSH[dR]W[Bpa]P[azaGly]-NH2 (reading uncertain) [BRU-2818],1620,–
DO3A10CM-G[Tdgly]HWSHRW[Bpa]P[azaGly]-NH2 (not fully specified (residue 7); reading uncertain; also: AA6 Darg prints R) [BRU-2878],4480,–
{DO3A10CM″}-[Sar]HWSH[dR]WYP[azaGly]-NH2 [BRU-2758],10000,–
XHWSHXWXPX (DO3A10CM on N-terminus; AA1 Sar; AA6 Darg; AA8 Tha; AA10 azaGly-NH2) [BRU-2742],10000,–
DO3A10CM-[Sar][Tha]WSH[dR]W[Bpa]P[azaGly]-NH2 (reading uncertain) [BRU-2768],12800,–
XRWSHXWXPX (DO3A10CM on N-terminus; AA1 Mednal2; AA6 Darg; AA8 Bpa4; AA10 azaGly-NH2) [BRU-2965],580,2
XHWSHXWXPX (DO3A10CM on N-terminus; AA1 Nal2; AA6 Darg; AA8 Bpa4; AA10 azaGly-NH2) [BRU-2809],3540,–

Binder,EC50 [nM],fold reduction in binding potency against BRU-2813 [fold]
DO3A10CM-[Sar][dAfe4]WSH[dR]W[Bpa]P[azaGly]-NH2 (reading uncertain) [BRU-2815],7250,–
{DO3A10CM″}-[Sar][Tha]WS[Tha][dR]W[Bpa]P[azaGly]-NH2 (reading uncertain) [BRU-2762],15000,–
XHWSHXWXPX (DO3A10CM on N-terminus; AA1 Sar; AA6 Darg; AA8 Ing2; AA10 azaGly-NH2) [BRU-2765],8710,–
GXRWSHXWXPX (DO3A10CM-Gly (linker) on N-terminus; AA1 Tic; AA6 Darg; AA8 Bpa4; AA10 azaGly-NH2) [BRU-3052],550,–
XHWSHXWXPX (DO3A10CM on N-terminus; AA1 Mednal2; AA6 Darg; AA8 Bpa4; AA10 azaGly-NH2) [BRU-3003],760,–
XRXSHXWXPX (DO3A10CM on N-terminus; AA1 Dnal2; AA3 Pal3; AA6 Darg; AA8 Bpa4; AA10 azaGly-NH2) [BRU-3109],730,–
XHWSHXWXPX (DO3A10CM on N-terminus; AA1 Ambz4; AA6 Darg; AA8 Bpa4; AA10 azaGly-NH2) [BRU-2737],1400,–
XRWSHXWXPX (DO3A10CM on N-terminus; AA1 Sar; AA6 Darg; AA8 Bpa4; AA10 azaGly-NH2) [BRU-2817],1700,–
DO3A10CM-[d2Nal]RWSR[dW]W[Bpa]P[azaGly]-NH2 (reading uncertain) [BRU-3001],3280,–
XHWSHXWXPX (AA1 Ac-Amfe4 with (DO3A10CM) as printed; AA6 Darg; AA8 Bpa4; AA10 azaGly-NH2) [BRU-2881],1380,–
XHWSHXWXPX (DO3A10CM on N-terminus; AA1 Sar; AA6 Darg; AA8 Nal1; AA10 azaGly-NH2) [BRU-2720],540,–
XHWSHXWXPX (DO3A10CM on N-terminus; AA1 Sar; AA6 Darg; AA8 Bpa(NOH); AA10 azaGly-NH2) [BRU-2907],1900,–
XHWSHXWXPX (DO3A10CM on N-terminus; AA1 Sar; AA6 Darg; AA8 Tyr(OBz); AA10 azaGly-NH2) [BRU-2820],1570,–
XHWSHXWXPX (DO3A10CM on N-terminus; AA1 EtGly; AA6 Darg; AA8 Bpa4; AA10 azaGly-NH2) [BRU-2788],210,–
XHWSHXWXPX (DO3A10CM on N-terminus; AA1 Sar; AA6 Darg; AA8 Cha; AA10 azaGly-NH2) [BRU-2718],630,–
XRXSHXWXPX (DO3A10CM on N-terminus; AA1 Dnal2; AA3 Dtrp; AA6 Darg; AA8 Bpa4; AA10 azaGly-NH2) [BRU-3112],850,–
GXRWSHXWXPX (DO3A10CM-Gly (linker) on N-terminus; AA1 Dtic; AA6 Darg; AA8 Bpa4; AA10 azaGly-NH2) [BRU-3067],510,–
XHWSHXWXPX (DO3A10CM on N-terminus; AA1 Sar; AA6 Darg; AA8 Aic2; AA10 azaGly-NH2) [BRU-2764],4310,–
XHWSHXWXPX (DO3A10CM on N-terminus; AA1 Sar; AA6 Darg; AA8 Pal3; AA10 azaGly-NH2) [BRU-2726],17400,–
XRWSHXWXPX (DO3A10CM on N-terminus; AA1 Cafe4; AA6 Darg; AA8 Bpa4; AA10 azaGly-NH2) [BRU-3092],2000,–
{DO3A10CM″}-[Sar][His(pime)]WS[Tha][dR]W[Bpa]P[azaGly]-NH2 (reading uncertain) [BRU-2739],5280,–
